Laboratory results from the supplement of paper PMC10724198.
± gives the standard deviation of the averaged measurements.

Test system: Saccharomyces cerevisiae
Experiment: protein stability index of tFT-peptide fusion (C-terminal peptide) (PSI (0-1 scale)); higher = more stable (slower turnover)
Conditions: temperature: 30 C
Procedure: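 MPS profiling in S. cerevisiae of the yeast C-terminome library: the last 12 aa of each annotated ORF are fused to the C-terminus of a sfGFP-mCherry timer, after a GGGS linker. Cells are FACS-sorted into 8 mCherry/sfGFP bins and deep-sequenced. PSI runs from 0 (unstable) to 1 (stable); wild type and das1Δ backgrounds, two technical replicates each.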

[1] = genetic background: das1 deletion

Sequence | protein stability index [1] | protein stability index (genetic background: wild type)
CVNSASLNLKKD [MXR2 C-terminal 12 aa] | 0.695 ± 0.023 | 0.682 ± 0.035
CVTQACGRTIKM [YBR141W-A C-terminal 12 aa] | 0.732 ± 0.037 | 0.779 ± 0.13
DAIDNSDEITQD [IRR1 C-terminal 12 aa] | 0.709 ± 0.029 | 0.703 ± 0.064
DALYRIIYGNIL [TIP20 C-terminal 12 aa] | 0.711 ± 0.02 | 0.743 ± 0.037
DATRREVMTERK [LSM2 C-terminal 12 aa] | 0.672 ± 0.014 | 0.688 ± 0.059
DAYHKAAEENKD [MCT1 C-terminal 12 aa] | 0.6729 ± 0.0053 | 0.693 ± 0.016
DDEFGDLDAVFF [SNF6 C-terminal 12 aa] | 0.747 ± 0.021 | 0.739 ± 0.0056
DDIANNQSICCV [YPT11 C-terminal 12 aa] | 0.649 ± 0.02 | 0.649 ± 0.018
DDSKILIEHLSE [PET54 C-terminal 12 aa] | 0.697 ± 0.024 | 0.662 ± 0.04
DEFIKKNSDKIR [EXO84 C-terminal 12 aa] | 0.676 ± 0.047 | 0.64 ± 0.037
DEMQDFLKKHAS [SWI6 C-terminal 12 aa] | 0.7311 ± 0.0031 | 0.643 ± 0.033
DERLEQLKRLGI [HOM3 C-terminal 12 aa] | 0.7246 ± 0.0048 | 0.677 ± 0.019
DERRQPVSNLRM [YDL163W C-terminal 12 aa] | 0.712 ± 0.018 | 0.658 ± 0.01
DEVTYLMFSSIM [SPG1 C-terminal 12 aa] | 0.713 ± 0.011 | 0.658 ± 0.026
DEWLNLHINIVE [SHU2 C-terminal 12 aa] | 0.741 ± 0.0062 | 0.717 ± 0.014
DEWRAKYGGQQV [MES1 C-terminal 12 aa] | 0.675 ± 0.037 | 0.676 ± 0.029
DFENKLKKKKRK [TMA64 C-terminal 12 aa] | 0.7268 ± 0.0047 | 0.715 ± 0.018

Sequence | protein stability index [1] | protein stability index (genetic background: wild type)
DIDDDVGEDSED [RMR1 C-terminal 12 aa] | 0.694 ± 0.014 | 0.662 ± 0.013
DIIYFRAGAGKN [OLA1 C-terminal 12 aa] | 0.691 ± 0.017 | 0.6666 ± 0.0055
DILKILSSSFHN [SPC29 C-terminal 12 aa] | 0.7095 ± 0.0039 | 0.709 ± 0.014
DISVQQVKIASK [SPF1 C-terminal 12 aa] | 0.682 ± 0.018 | 0.6857 ± 0.0041
DKAAPALKKVKM [SFL1 C-terminal 12 aa] | 0.675 ± 0.026 | 0.71 ± 0.041
DKIDVVLKKISQ [ECM15 C-terminal 12 aa] | 0.7095 ± 0.0048 | 0.683 ± 0.067
DKLAQRLRALRG [DID2 C-terminal 12 aa] | 0.699 ± 0.01 | 0.684 ± 0.048
DKLSWSVRWEPR [URA4 C-terminal 12 aa] | 0.712 ± 0.021 | 0.721 ± 0.022
DLEFEEQREPKL [NVJ2 C-terminal 12 aa] | 0.719 ± 0.006 | 0.668 ± 0.011
DLKTGNAVKGEL [SSZ1 C-terminal 12 aa] | 0.669 ± 0.019 | 0.6914 ± 0.0056
DLLDMIDSLGKL [FSH3 C-terminal 12 aa] | 0.688 ± 0.023 | 0.694 ± 0.056
DNFMNNSDIFQN [TGL5 C-terminal 12 aa] | 0.741 ± 0.027 | 0.686 ± 0.0082
DPSKLRRVPVIQ [RGL1 C-terminal 12 aa] | 0.69 ± 0.018 | 0.687 ± 0.066
DQAKDASPNAKK [RGM1 C-terminal 12 aa] | 0.694 ± 0.0073 | 0.673 ± 0.011
DRKQSQATNATN [ARP7 C-terminal 12 aa] | 0.687 ± 0.016 | 0.671 ± 0.0046
DRVQRAFPKPDT [GLG2 C-terminal 12 aa] | 0.704 ± 0.016 | 0.686 ± 0.032
DSEEKKSKKSKK [CBF5 C-terminal 12 aa] | 0.669 ± 0.056 | 0.6785 ± 0.0045
